Here are results for one protein from publication PMC2726748 (Journal of molecular biology, 2009).

Usually stoichiometry N stands for the number of molecules, sites or subunits per partner or assembly.

The data set concerns the molecule itself. Kind of data set: crystal structure.

B1: recombinant mouse apoptosis inducing factor AIFΔ1–101 (domain or fragment, UniProt Q9Z0X1 102-612, looked up)
chain: GLSPEEKQRRAIASATEGGSVPQIRAPSHVPFLLIGGGTAAFAAARSIRARDPGARVLIVSEDPELPYMRPPLSKELWFSDDPNVTKTLQFRQWNGKERSIYFQPPSFYVSAQDLPNIENGGVAVLTGKKVVHLDVRGNMVKLNDGSQITFEKCLIATGGTPRSLSAIDRAGAEVKSRTTLFRKIGDFRALEKISREVKSITVIGGGFLGSELACALGRKSQASGIEVIQLFPEKGNMGKILPQYLSNWTMEKVKREGVKVMPNAIVQSVGVSGGRLLIKLKDGRKVETDHIVTAVGLEPNVELAKTGGLEIDSDFGGFRVNAELQARSNIWVAGDAACFYDIKLGRRRVEHHDHAVVSGRLAGENMTGAAKPYWHQSMFWSDLGPDVGYEAIGLVDSSLPTVGVFAKATAQDNPKSATEQSGTGIRSESETESEASEITIPPSAPAVPQVPVEGEDYGKGVIFYLRDKVVVGIVLWNVFNRMPIARKIIKDGEQHEDLNEVAKLFNIHED
As to B1, the “stoichiometry N” value turned out to be 2.
